Data published in patent US6686449B2, “Mutant presenilin 1 polypeptides” (Pharmacia & Upjohn Company, priority 2000, dated 2004).

Key:
[1] = system: APP processing in H125.3-16 (APP695sw-KK) and H143.3-23 (APP695sw) HEK cells; assay: Transient transfection of constructs, Elisa of Aβ in conditioned media, HEK APP695sw cell lines; assay type: cell-based, human; conditions: 48 hours after transfection
Method: (§1) The construction of the cell lines used in this section has been described in U.S. Pat. No. 6,440,698. Transient transfections were carried out in 4 different cell lines: H125.3-16, N2A-APP, H143.3-23, and H167-11. The H125.3-16 cell line expresses human APP695 swedish mutant cDNA with a dilyine motif in HEK-293 cells, and the H 143.3-23 cell line expresses human APP695 swedish mutant cDNA in HEK-293 cells. The H167-1 1 cell line was developed using the same methods as the H125.3-16 and H143.3-23 cell lines, except the 167 construct DNA (pTRES-EGFP harboring the human APP695 V642F mutant cDNA containing a dilyine motif) was used. […]
(§2) Twenty-four hours prior to transfection, cells were plated at 6×10^5 cells per well of a six-well dish. […] Conditioned media was collected from the cells 48 hours after transfection and then analyzed by Elisa assay for levels of Aβ1-40 and Aβ1-42. […]

[2] = system: APP processing in H167-11 HEK cells (APP695V642F-KK); assay: Transient transfection of constructs, Elisa of Aβ in conditioned media, H167-11 cell line; assay type: cell-based, human; conditions: 48 hours after transfection
Method: as §1, §2

B1: BACE: beta-secretase (Asp2) plasmid transfected into the cell lines (protein, UniProt P56817 46-501, looked up)
Beta-secretase 1: ETDEEPEEPGRRGSFVEMVDNLRGKSGQGYYVEMTVGSPPQTLNILVDTGSSNFAVGAAPHPFLHRYYQRQLSSTYRDLRKGVYVPYTQGKWEGELGTDLVSIPHGPNVTVRANIAAITESDKFFINGSNWEGILGLAYAEIARPDDSLEPFFDSLVKQTHVPNLFSLQLCGAGFPLNQSEVLASVGGSMIIGGIDHSLYTGSLWYTPIRREWYYEVIIVRVEINGQDLKMDCKEYNYDKSIVDSGTTNLRLPKKVFEAAVKSIKAASSTEKFPDGFWLGEQLVCWQAGTTPWNIFPVISLYLMGEVTNQSFRITILPQQYLRPVEDVATSQDDCYKFAISQSSTGTVMGAVIMEGFYVVFDRARKRIGFAVSACHVHDEFRTAAVEGPFVTLDMEDCGYNIPQTDESTLMTIAYVMAAICALFMLPLCLMVCQWRCLRCLRQQHDDFADDISLLK
change of Aβ1-40 in conditioned media versus mock transfected cells [1]: robust increase
change of Aβ1-42 in conditioned media versus mock transfected cells [1]: robust increase
change of Aβ1-40 or Aβ1-42 versus mock transfected cells [2]: increase
